1 molecule from publication PMC9308757 can be followed below.

One data set deals with MBP-DDX3Y (human, UniProt O15523 1-660). The experiment in a line: smFRET.
For a further data set, the target named is MBP-DDX3X (human, UniProt O00571 1-662). The experiment in a line: smFRET.
Sequence of MBP-DDX3X (O00571 whole entry): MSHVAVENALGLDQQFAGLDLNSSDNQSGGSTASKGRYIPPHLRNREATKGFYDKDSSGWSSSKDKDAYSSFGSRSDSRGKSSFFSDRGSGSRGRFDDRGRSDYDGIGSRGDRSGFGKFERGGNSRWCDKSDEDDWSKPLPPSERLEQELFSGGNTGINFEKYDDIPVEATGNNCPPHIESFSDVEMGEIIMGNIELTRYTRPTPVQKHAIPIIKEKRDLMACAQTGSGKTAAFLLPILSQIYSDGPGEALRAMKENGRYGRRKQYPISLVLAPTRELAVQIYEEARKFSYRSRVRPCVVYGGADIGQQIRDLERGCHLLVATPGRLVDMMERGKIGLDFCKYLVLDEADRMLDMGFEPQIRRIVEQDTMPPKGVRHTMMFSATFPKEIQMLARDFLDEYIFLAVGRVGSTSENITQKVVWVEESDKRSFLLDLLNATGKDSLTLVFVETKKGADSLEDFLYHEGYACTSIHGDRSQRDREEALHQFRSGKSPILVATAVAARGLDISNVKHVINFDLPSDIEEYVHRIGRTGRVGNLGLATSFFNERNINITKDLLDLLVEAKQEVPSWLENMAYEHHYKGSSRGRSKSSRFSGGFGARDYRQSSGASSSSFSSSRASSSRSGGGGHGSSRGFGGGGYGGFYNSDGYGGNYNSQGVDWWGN

Sequence of MBP-DDX3Y (O15523 whole entry): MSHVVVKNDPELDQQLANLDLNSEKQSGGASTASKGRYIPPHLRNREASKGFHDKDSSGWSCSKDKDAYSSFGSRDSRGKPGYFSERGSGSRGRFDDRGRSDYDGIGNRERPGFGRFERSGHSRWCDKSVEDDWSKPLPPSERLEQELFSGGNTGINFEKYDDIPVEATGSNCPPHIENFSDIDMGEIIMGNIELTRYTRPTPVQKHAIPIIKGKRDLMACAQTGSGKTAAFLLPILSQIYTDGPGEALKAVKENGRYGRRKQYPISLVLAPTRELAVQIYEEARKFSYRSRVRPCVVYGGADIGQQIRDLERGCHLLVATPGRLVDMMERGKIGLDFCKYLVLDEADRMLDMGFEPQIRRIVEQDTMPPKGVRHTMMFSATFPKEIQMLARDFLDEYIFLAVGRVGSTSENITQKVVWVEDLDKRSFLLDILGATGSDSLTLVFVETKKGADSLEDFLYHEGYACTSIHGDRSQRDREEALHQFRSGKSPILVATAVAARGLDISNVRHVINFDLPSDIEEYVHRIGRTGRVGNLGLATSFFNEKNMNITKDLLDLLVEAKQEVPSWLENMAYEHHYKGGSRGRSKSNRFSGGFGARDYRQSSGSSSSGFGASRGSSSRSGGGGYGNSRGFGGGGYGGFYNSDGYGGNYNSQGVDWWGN

B1: smFRET dsRNA with 5' poly(U) overhang (dsRNA)
RNA 1: ACCGCUGCCGUCGCUCCG
RNA 2: UUUUUUUUUUUUUUUUUUUUUUUUUUUUUUUUUUUUUUUUUUUUUUUUUUCGGAGCGACGGCAGCGGU
With B1, the binding result with MBP-DDX3Y and with MBP-DDX3X was “binds” each time.
